Kd and stoichiometry N data for one substance are collected here from article PMC12009342.

In test [1] the target is HIV-1 Env antigen (BG505 SOSIP.664 gp140-his) (HIV-1 (BG505)) (UniProt Q2N0S6). The experiment in a line: BLI; BLItz; His-tagged antigen captured on Anti-Penta-HIS (HIS1K) biosensor at 25 ng/µL for 300 s; Fab in solution at 4 concentrations; association 180 s, dissociation 300 s in PBS. Background: Biolayer interferometry detects binding as a change in optical thickness at a sensor tip.

Test [2] has the same target. Nature of the test: SEC-MALS; Fab/antigen mixtures; Fab and HIV Env trimer mixed 3:1, Fab and EGFR or Nkp30 mixed 1:1; Superdex 200 Increase 10/300 GL, PBS with 200 ppm sodium azide, 1 mL/min. For orientation: Size exclusion chromatography separates by hydrodynamic size, large species first.

The substance “NC-Cow1 Fab ulCDR-swap variant var1 (ulCDR of NC-Cow2)” showed a Kd in test [1] of 125 nM. The stoichiometry N in test [2] came out at 1.

Usually Kd stands for the concentration at which binding is half-saturated. The term stoichiometry N denotes the number of molecules, sites or subunits per partner or assembly.
